Test [1] concerns the target Pregnancy zone protein in fucosidase-treated serum (human) (UniProt P20742). Briefly: fucosidase-treated serum on M-LAC column, displacer fraction, LC-MS/MS; smaller rank = more abundant.
The target is the same in test [2]. Briefly: fucosidase-treated serum on M-LAC column, displacer fraction, extracted ion chromatogram of peptide … (so in the source).

Pregnancy zone protein in fucosidase-treated serum (human), sequence (P20742 26-1482 limits assumed): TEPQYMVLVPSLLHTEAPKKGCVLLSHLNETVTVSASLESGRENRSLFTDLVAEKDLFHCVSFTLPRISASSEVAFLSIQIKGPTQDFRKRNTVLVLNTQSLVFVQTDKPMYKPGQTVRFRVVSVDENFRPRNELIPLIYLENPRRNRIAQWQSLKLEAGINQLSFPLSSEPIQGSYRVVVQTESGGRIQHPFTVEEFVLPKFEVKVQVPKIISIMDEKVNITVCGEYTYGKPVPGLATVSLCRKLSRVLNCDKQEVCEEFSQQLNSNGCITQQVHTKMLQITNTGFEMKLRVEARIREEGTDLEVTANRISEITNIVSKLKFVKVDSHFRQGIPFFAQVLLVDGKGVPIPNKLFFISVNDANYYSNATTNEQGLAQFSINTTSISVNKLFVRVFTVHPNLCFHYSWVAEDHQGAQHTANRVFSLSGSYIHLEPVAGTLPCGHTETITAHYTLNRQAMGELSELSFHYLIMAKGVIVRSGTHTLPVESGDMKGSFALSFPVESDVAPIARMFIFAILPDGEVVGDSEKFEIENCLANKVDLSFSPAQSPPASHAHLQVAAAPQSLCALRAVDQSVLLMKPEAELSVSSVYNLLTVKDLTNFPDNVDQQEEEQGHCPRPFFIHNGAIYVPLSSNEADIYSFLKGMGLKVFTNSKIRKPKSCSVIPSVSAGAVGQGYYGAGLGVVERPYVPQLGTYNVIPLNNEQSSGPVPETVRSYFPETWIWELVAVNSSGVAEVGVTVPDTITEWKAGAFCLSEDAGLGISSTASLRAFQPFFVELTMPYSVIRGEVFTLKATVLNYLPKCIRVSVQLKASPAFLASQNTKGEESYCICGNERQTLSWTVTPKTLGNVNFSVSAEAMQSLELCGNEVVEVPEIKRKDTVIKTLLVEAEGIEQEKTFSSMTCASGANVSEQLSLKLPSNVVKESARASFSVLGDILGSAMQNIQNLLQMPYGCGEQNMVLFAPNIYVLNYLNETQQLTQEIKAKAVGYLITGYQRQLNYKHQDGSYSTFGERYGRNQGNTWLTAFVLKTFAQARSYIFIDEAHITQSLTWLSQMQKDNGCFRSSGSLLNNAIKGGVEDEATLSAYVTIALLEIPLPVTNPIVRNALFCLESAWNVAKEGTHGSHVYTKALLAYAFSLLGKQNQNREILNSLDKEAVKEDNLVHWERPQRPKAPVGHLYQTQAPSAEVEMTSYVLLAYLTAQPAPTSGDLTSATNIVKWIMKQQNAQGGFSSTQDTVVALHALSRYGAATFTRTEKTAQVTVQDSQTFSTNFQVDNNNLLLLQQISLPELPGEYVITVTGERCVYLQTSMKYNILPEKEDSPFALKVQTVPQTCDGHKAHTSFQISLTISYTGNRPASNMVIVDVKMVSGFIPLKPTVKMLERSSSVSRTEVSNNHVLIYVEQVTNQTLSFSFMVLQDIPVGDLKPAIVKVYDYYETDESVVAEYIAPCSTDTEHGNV

B1: Jacalin lectin, agarose-bound (protein)
chain 1: GKAFDDGAFTGIREINLSYNKETAIGDFQVVYDLNGSPYVGQNHKSFITGFTPVKISLDFPSEYIMEVSGYTGNVSGYVVVRSLTFKTNKKTYGPYGVTSGTPFNLPIENGLIVGFKGSIGYWLDYFSMYLSL
chain 2: NEQSGKSQTVIVGSWGAKVS
modifications: immobilized on agarose
Turning to B1, the SEQUEST rank in displacer fraction in test [1] worked out at 6. Also, in test [2], the peptide peak area in displacer fraction turned out to be 0 counts.

Source of the values: patent US20090166224A1.
